From US20030199671A1 (published 2003)
Positions of bridges follow the written chain, without caps; N, C: chain ends.

Legend:
human IgG1 [1] = target: T1, human IgG1 (human, UniProt P01857-1 1-330 = IgG part); test: fluorescence anisotropy; pH 7.4 PBS
T1 construct: Calbiochem; human plasma IgG1 in anisotropy studies, myeloma-derived (cat. 400120) in batch/column studies; also called hIgG1
Method: (§1) All measurements were performed in 384 well microplates with 20 nM fluorescein-labeled peptide and various concentrations of the IgG isoform in a volume of between 10 and 20 μl using a Tecan Polarion fluorescence polarization plate reader. All binding buffers included 0.01% (v/v) Tween 20 to prevent peptide adsorption to the microplate. The binding mixture was equilibrated for 10 minutes in the microplate at 30° C. prior to performing the measurement.

human IgG2 [2] = target: T2, human IgG2 (human, UniProt P01859-1 1-326 = IgG part); test: fluorescence anisotropy; pH 7.4 PBS
T2 construct: Calbiochem; plasma IgG2 in anisotropy studies, myeloma-derived (cat. 400122) in batch/column studies; also called hIgG2
Method: as §1

human IgG4 [3] = target: T3, human IgG4 (human, UniProt P01861-1 1-327 = IgG part); test: fluorescence anisotropy; pH 7.4 PBS
T3 construct: Calbiochem; plasma IgG4 in anisotropy studies, myeloma-derived (cat. 400126) in batch/column studies; also called hIgG4
Method: as §1

human IgG1 [4] = target: T1, human IgG1; test: fluorescence anisotropy; pH 5.7, 0 M NaCl
Method: as §1

human IgG1 [5] = target: T1, human IgG1; test: mini-column chromatography, immobilised ligand
Method: (§2) Thus, 250 μg of target (hIgG1, hIgG2, hIgG3, hIgG4, goat IgG and bovine IgG) at 0.250 mg/ml in PBST, pH 7.2 or TBST, pH 7.3 was loaded onto a 350 μl column (3×50 mm) run at 0.200 ml/min. flowrate (170 cm/hr). Flowthrough, elution and cleaning fractions were collected and assayed for total protein recovery by size-exclusion HPLC.

human IgG2 [6] = target: T2, human IgG2; test: mini-column chromatography, immobilised ligand
Method: as §2

human IgG4 [7] = target: T3, human IgG4; test: mini-column chromatography, immobilised ligand
Method: as §2

human IgG1 [8] = target: T1, human IgG1; test: fluorescence anisotropy; pH 5.7, 0.1 M NaCl
Method: as §1

human IgG1 [9] = target: T1, human IgG1; test: fluorescence anisotropy; pH 5.7, 0.05 M NaCl
Method: as §1

human IgG1 [10] = target: T1, human IgG1; test: fluorescence anisotropy; pH 5.7, 0.15 M NaCl
Method: as §1

human IgG1 [11] = target: T1, human IgG1; test: fluorescence anisotropy; pH 5.7, 0.15 M NaCl; remark: listed apart in the source
Method: as §1

human IgG1 [12] = target: T1, human IgG1; test: fluorescence anisotropy; pH 7.4, 0.01 M Tris-HCl
Method: as §1

human IgG2 [13] = target: T2, human IgG2; test: fluorescence anisotropy; pH 7.4, 0.01 M Tris-HCl
Method: as §1

human IgG4 [14] = target: T3, human IgG4; test: fluorescence anisotropy; pH 7.4, 0.01 M Tris-HCl
Method: as §1

[15] = target: T4, human IgG (unfractionated, polyclonal); test: filterplate; 25 mg human IgG applied per ml resin
T4 construct: also called hIgG; polyclonal human IgG
Method: After incubation of the samples, with shaking, at room temperature for one hour, the supernatant liquid from each well, containing unbound IgG, was collected by centrifugation into the cognate well of a collection plate. The assay plate was washed three times with PBST (200 μl/wash) and bound IgG was eluted from the media samples by incubation for 30-60 minutes at room temperature in 100 μl Elution Buffer (100 mM CAPS, pH 11.5). Eluates were collected by centrifugation for analysis. Protein concentrations were determined from A₂₈₀ measurements and plotted as a function of mg human IgG bound per ml resin vs. mg human IgG applied per ml resin.
These were subsequently tested in batch filterplate format for relative static capacity, human IgG subtype and species specificity as previously described. In addition, total dynamic capacities were determined for comparison. […] The static capacity (mg IgG bound per ml resin) was measured at the 2.5 mg/ml target concentration (25 mg human IgG applied per ml resin).

human IgG1 [16] = target: T1, human IgG1; test: fluorescence anisotropy; pH 5.7, 0.01 M Tris-acetate
Method: as §1

human IgG2 [17] = target: T2, human IgG2; test: as above
Method: as §1

human IgG4 [18] = target: T3, human IgG4; test: as above
Method: as §1

human IgG1 [19] = target: T1, human IgG1; test: fluorescence anisotropy; pH 5.7, 15% ethylene glycol
Method: as §1

human IgG1 [20] = target: T1, human IgG1; test: fluorescence anisotropy; pH 7.4 PBS, 15% ethylene glycol
Method: as §1

[21] = target: T5, Human IgG Fc fragment isolated from plasma (human); test: fluorescence anisotropy; pH 8.0, 0.05 M Tris-HCl, 0.2 M NaCl
T5 construct: domain: Fc fragment; also called human Fc; Fc protein
Method: as §1

human IgG1 [22] = target: T1, human IgG1; test: fluorescence anisotropy; pH 7.4 PBS (second value, unlabelled row)
Method: as §1

T3 sequence (P01861 other isoform, or with tags, fused parts or gaps): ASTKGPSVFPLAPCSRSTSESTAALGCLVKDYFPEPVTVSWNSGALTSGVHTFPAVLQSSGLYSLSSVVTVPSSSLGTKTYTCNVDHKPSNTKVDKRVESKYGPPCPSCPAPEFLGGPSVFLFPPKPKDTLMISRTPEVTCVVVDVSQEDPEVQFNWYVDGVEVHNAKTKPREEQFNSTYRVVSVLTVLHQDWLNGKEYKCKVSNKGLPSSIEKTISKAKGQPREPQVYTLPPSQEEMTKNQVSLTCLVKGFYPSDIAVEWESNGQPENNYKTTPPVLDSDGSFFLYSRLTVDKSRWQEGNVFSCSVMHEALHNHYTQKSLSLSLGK
T2 sequence (P01859 other isoform, or with tags, fused parts or gaps): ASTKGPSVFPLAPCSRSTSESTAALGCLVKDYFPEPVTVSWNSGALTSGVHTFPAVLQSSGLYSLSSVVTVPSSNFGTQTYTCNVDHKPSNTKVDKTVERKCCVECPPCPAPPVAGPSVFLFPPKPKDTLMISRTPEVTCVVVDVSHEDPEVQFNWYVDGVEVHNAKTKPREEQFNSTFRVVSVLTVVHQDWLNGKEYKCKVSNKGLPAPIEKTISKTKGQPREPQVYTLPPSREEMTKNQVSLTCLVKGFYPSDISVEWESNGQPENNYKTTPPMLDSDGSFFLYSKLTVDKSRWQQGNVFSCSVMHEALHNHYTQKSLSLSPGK
T1 sequence (P01857 other isoform, or with tags, fused parts or gaps): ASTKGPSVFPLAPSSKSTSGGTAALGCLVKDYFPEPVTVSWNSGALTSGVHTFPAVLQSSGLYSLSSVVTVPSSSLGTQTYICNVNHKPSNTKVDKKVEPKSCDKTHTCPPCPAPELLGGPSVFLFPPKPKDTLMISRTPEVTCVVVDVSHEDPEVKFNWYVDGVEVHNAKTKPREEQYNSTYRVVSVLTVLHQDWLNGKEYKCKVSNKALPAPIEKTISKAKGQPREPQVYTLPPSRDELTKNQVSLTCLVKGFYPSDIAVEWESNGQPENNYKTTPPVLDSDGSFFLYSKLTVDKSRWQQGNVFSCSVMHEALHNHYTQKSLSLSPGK

Kd (human IgG1 [1]): 1400 nM
Kd (human IgG2 [2]): 1100 nM
Kd (human IgG4 [3]): 1900 nM
Kd (human IgG1 [4]): 74 nM
binding efficiency (human IgG1 [5]): > 90%
binding efficiency (human IgG2 [6]): > 90%
binding efficiency (human IgG4 [7]): > 90%
Kd (human IgG1 [8]): 970 nM
Kd (human IgG1 [9]): 300 nM
Kd (human IgG1 [10]): 840 nM
Kd (human IgG1 [11]): 840 nM
Kd (human IgG1 [12]): 400 nM
Kd (human IgG2 [13]): 1800 nM
Kd (human IgG4 [14]): 1900 nM
Static Cap. [15]: 24 mg/mL
Kd (human IgG1 [16]): 74 nM
Kd (human IgG2 [17]): 68 nM
Kd (human IgG4 [18]): 300 nM
Kd (human IgG1 [19]): 80 nM
Kd (human IgG1 [20]): 3600 nM
Kd [21]: 2500 nM
Kd (human IgG1 [22]): 2900 nM
Binder: Ac-GDDHMCVYTTWGELIWCDNHEPGPEGGGK-NH2 (disulfide 6-17 (inferred), Synthetic disulfide-cyclised peptide) [DX249]
